Experiment [1] has as its target mouse MerTK overexpressed on CHO cells (mouse) (UniProt Q60805). The experiment can be described thus: FACS, CHO-muMerTK OE cells, PE-conjugated control. For orientation: In flow cytometry, cells or beads pass a laser one at a time.
Experiment [2] deals with endogenous murine MerTK on bone marrow-derived macrophages (mouse) (UniProt Q60805). The experiment can be described thus: FACS, mouse BMDM, WT minus MerTK KO.

This passage reports MFI results from US20240294650A1.

Chain of mouse MerTK overexpressed on CHO cells (mouse) (Q60805 19-994): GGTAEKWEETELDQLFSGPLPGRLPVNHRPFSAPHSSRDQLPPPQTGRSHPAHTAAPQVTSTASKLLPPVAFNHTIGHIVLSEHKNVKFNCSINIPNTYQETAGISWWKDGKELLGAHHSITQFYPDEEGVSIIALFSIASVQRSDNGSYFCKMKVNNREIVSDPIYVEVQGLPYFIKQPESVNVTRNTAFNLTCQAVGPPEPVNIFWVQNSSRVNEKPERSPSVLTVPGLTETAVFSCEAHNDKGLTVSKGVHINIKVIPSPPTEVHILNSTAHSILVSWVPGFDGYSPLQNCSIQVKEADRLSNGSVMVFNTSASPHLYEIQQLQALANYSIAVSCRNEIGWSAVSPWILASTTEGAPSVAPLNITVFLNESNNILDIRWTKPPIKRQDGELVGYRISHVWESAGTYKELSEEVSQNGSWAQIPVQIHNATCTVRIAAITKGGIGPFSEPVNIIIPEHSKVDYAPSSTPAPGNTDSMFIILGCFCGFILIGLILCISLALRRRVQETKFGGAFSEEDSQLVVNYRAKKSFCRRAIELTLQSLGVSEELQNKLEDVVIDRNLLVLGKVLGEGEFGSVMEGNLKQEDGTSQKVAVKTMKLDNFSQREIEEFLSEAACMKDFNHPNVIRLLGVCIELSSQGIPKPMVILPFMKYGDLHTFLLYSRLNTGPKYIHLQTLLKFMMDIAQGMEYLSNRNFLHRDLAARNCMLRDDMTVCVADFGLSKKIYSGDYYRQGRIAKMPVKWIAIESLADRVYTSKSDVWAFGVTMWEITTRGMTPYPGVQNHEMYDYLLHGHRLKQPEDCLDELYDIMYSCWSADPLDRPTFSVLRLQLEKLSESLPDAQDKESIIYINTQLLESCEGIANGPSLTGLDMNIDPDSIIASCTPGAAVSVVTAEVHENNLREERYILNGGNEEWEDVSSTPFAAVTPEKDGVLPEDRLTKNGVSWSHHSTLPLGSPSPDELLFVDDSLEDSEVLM
Chain of endogenous murine MerTK on bone marrow-derived macrophages (mouse) (Q60805 19-994): as above

For the substance “rat anti-mouse MerTK monoclonal antibody DS5MMER”, the MFI in experiment [1] was found to be 3500 MFI; in experiment [2], 2800 MFI.
